Two molecules from patent US20030026803A1 (published 2003) can be followed below.

Assay [1] has as its target T1, hSIRP-Fc (extracellular region of human SIRPα fused to the Fc region of human IgG) (human, UniProt P78324 31-373).
T1 construct: extracellular domain; also called human SIRP-Fc; dimeric hSIRP-Fc; not shown: human IgG Fc from vector pIg PLUS (R&D Systems)
Kind of assay: BIAcore, 37° C; lower bound because of rebinding. As for the experimental part: (§1) (C) Soluble hCD47 (18.3 μM) was injected over immobilised hSIRP-Fc immobilised at high (6500 RU) (filled circles) and low (3000) levels (filled up triangles), and hCTLA-4-Fc (6290 RU) (filled down triangles). Values for koff=1.6 s⁻¹ for hSIRP-Fc high, 2.1 s⁻¹ hSIRP-Fc low and 7.0 s⁻¹ for hCTLA-4-Fc were calculated by exponential decay curve fitting (line) to dissociation data (symbols).
(§2) BIAcore analysis was carried out using a BIAcore™ 2000 biosensor instrument (Biacore AB) as previously described (Brown et al., (1998) J. Exp. Med. 188:2083-90, van der Merwe, et al., (1994) Biochemistry 33:101489-60) using CM5 research grade chips. […] For equilibrium binding increasing and decreasing concentrations of monomeric hCD47-CD4d3+4 were passed over hSIRP-Fc (6500 RU). For kinetic measurements hCD47-CD4d3+4 (18.30 μM) was passed over hSIRP-Fc immobilised at 6500 RU and 3000 RU and a control, CTLA4-Fc (6300 RU). CD47mAb blocking and V-SIRP-CD4d3+4 binding experiments were carried out at 10 and 5 μl/min respectively at 25° C.
(§3) To measure the affinity of the interaction hSIRP-Fc was directly immobilised and monomeric hCD47-CD4d3+4 passed over it. As shown in FIG. 5A hCD47-CD4d3+4 bound specifically to hSIRP-Fc in a dose dependent manner. […] The apparent rate constants were calculated as koff=1.3 s⁻¹ for the higher level of hSIRP-Fc and koff=2.1 s⁻¹ for the lower level (FIG. 5C). […]

Assay [2] concerns the target T1, hSIRP-Fc (extracellular region of human …). Kind of assay: BIAcore, 37° C; apparent rate constant, hSIRP-Fc at the higher level. As for the experimental part:
as §1, §2, §3

Assay [3] has the same target. Put plainly: BIAcore equilibrium binding at 37° C, Scatchard analysis. As for the experimental part: as §1, §2, §3
For assay [4] the target is unchanged. Put plainly: BIAcore, 37° C; 18.3 µM hCD47-CD4d3+4 over hSIRP-Fc at 3000 RU, exponential decay fitting. As for the experimental part:
(§4) FIG. 5. Affinity and dissociation rate of soluble human CD47-CD4d3+4 binding to human SIRP-Fc. (A) Soluble monomeric hCD47-CD4d3+4 was injected at the indicated concentrations in 1 μM through flowcells immobilised hSIRP-Fc (6525 RU) (solid line), or as a negative control CTLA-4-Fc (6290 RU) (dotted line) at 37° C. (B) the difference between the response between the response at equilibrium in the hSIRP-Fc flowcell and the control flow cell is plotted against the hCD47-CD4d3+4 concentration. A kd=8.5 μM and maximal binding of 1400 RU were calculated by non linear curve fitting of the Langmuir isotherm (line) to data (circles) from A with negative control subtracted. […] (C) Soluble hCD47 (18.3 μM) was injected over immobilised hSIRP-Fc immobilised at high (6500 RU) (filled circles) and low (3000) levels (filled up triangles), and hCTLA-4-Fc (6290 RU) (filled down triangles). Values for koff=1.6 s⁻¹ for hSIRP-Fc high, 2.1 s⁻¹ hSIRP-Fc low and 7.0 s⁻¹ for hCTLA-4-Fc were calculated by exponential decay curve fitting (line) to dissociation data (symbols).
(§5) BIAcore analysis was carried out using a BIAcore™ 2000 biosensor instrument (Biacore AB) as previously described (Brown et al., (1998) J. Exp. Med. 188:2083-90, van der Merwe, et al., (1994) Biochemistry 33:101489-60) using CM5 research grade chips. […]

Assay [5] shares this target. Kind of assay: BIAcore, 37° C; 18.3 µM hCD47-CD4d3+4 over hSIRP-Fc at 6500 RU, exponential decay fitting. As for the experimental part:
as §4, §5

Assay [6] shares this target. Kind of assay: BIAcore equilibrium binding at 37° C, non linear curve fitting of the Langmuir isotherm; hSIRP-Fc immobilised (6525 RU), control subtracted. As for the experimental part:
as §4, §5

In a further assay the target is T2, soluble rat CD4 (rat, UniProt P05540 28-394, limits assumed).
T2 sequence (looked up): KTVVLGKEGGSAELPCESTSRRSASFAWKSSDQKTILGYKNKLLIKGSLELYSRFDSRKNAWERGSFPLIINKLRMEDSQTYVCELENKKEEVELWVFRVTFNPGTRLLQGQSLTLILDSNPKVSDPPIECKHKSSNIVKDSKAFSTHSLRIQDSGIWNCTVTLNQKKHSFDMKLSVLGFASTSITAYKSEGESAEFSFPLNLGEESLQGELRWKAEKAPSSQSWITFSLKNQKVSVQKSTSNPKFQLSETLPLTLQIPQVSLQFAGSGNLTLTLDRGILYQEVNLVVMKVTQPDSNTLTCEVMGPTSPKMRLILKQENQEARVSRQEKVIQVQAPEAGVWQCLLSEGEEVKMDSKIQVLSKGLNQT
Put plainly: BIAcore, 25° C; soluble rat CD4 injected over V-SIRP-CD4d3+4 flowcell and control flowcell. As for the experimental part:
FIG. 6. The NH2-terminal V domain of SIRP binds CD47. Soluble rat CD4 and hCD47-CD4d3+4 were injected into flowcells with immobilised V-SIRP-Cd4d3+4 (solid line) or control rat CD4 (dashed line).
as §2
To localise the CD47 binding site on SIRP a construct containing only the NH₂-terminal V-like domain of hSIRP in frame with CD4d3+4 was made. V-SIRP-CD4d3+4 was immobilised in one flowcell via a CD4 mAb (OX68). The free OX68 in this flowcell and all the OX68 in the control flowcell was blocked with soluble rat CD4. Blocking was verified by repeating the injection of soluble rat CD4 (FIG. 6). Soluble hCD47-CD4d3+4 was then injected over both the flowcells. […]

B1: hCD47-CD4d3+4 (single extracellular IgSF domain of human CD47 fused to rat CD4 domains 3+4) (ligand, human;rat, UniProt Q08722 19-136, looked up)
chain: QLLFNKTKSVEFTFCNDTVVIPCFVTNMEAQNTTEVYVKWKFKGRDIYTFDGALNKSTVPTDFSSAKIEVSQLLKGDASLKMDKSDAVSHTGNYTCEVTELTREGETIIELKYRVVSWSTSITAYKSEGESAEFSFPLNLGEESLQGELRWKAEKAPSSQSWITFSLKNQKVSVQKSTSNPKFQLSETLPLTLQIPQVSLQFAGSGNLTLTLDRGILYQEVNLVVMKVTQPDSNTLTCEVMGPTSPKMRLILKQENQEARVSRQEKVIQVQAPEAGVWQCLLSEGEEVKMDSKIQVLSKGLN
notes: extracellular domain;domain: CD4 domains 3+4; Used as a monomer in solution, or captured via OX68; also called soluble human CD47-CD4d3+4; soluble hCD47; not shown: biotinylation peptide of the CD4d3+4-biotin vector
On to B1, for which the koff in assay [1] was at least 2.1 s⁻¹; in assay [2], 1.3 s⁻¹; in assay [4] it was 2.1 s⁻¹; in assay [5], 1.6 s⁻¹. The Kd in assay [3] worked out at 7.6 µM; in assay [6], 8.5 µM.

B2: V-SIRP-CD4d3+4 (NH2-terminal V-like domain of hSIRP in frame with rat CD4 domains 3+4) (receptor, human;rat, UniProt P78324 31-148, looked up)
chain: EEELQVIQPDKSVLVAAGETATLRCTATSLIPVGPIQWFRGAGPGRELIYNQKEGHFPRVTTVSDLTKRNNMDFSIRIGNITPADAGTYYCVKFRKGSPDDVEFKSGAGTELSVRAKPSTSITAYKSEGESAEFSFPLNLGEESLQGELRWKAEKAPSSQSWITFSLKNQKVSVQKSTSNPKFQLSETLPLTLQIPQVSLQFAGSGNLTLTLDRGILYQEVNLVVMKVTQPDSNTLTCEVMGPTSPKMRLILKQENQEARVSRQEKVIQVQAPEAGVWQCLLSEGEEVKMDSKIQVLSKGLN
notes: domain: NH2-terminal V-like domain;domain: CD4 domains 3+4; Captured on the chip via OX68; also called single SIRP V domain CD4d3+4 fusion protein
For B2, the binding result in the assay with soluble rat CD4 is recorded as “no binding”.
